Target: mouse (murine) NGF (mouse) (UniProt P01139)
Assay: SPR, purified antibody, beta muNGF, 39 C

mouse (murine) NGF (mouse), sequence (P01139 122-241 limits assumed): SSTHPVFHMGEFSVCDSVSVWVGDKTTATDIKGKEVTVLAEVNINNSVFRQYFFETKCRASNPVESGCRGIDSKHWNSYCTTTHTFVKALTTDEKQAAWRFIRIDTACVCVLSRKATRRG

Kd: 0.905 pM
koff: 6.2e-06 s⁻¹
kon: 6.86e+06 M⁻¹ s⁻¹
Substance: chimeric αD11 (rat αD11 variable regions fused to canine constant chain regions) (antibody)
